Measured values reported in patent US20160347802A1 (MAX PLANCK GESELLSCHAFT ZUR FOERDERUNG DER WISSENSCHAFTEN E …, published 2016).

Columns and labels:
[1] = molecular target: the molecule itself; assay: AVEXIS, prey on bait NTN3; white = No binding
Source text: (§1) The Matn4-bait served as an internal prey-protein control and was used for normalization of the A486 nm values; conditioned medium (CM) serves as negative control; n=3.

[2] = molecular target: the molecule itself; assay: AVEXIS, prey NTN3 on bait NTN3
Source text: as §1

[3] = molecular target: T1, human Netrin-4, AVEXIS protein (human, UniProt Q9HB63 19-628); assay: AVEXIS, prey NTN3 on bait NTN4
T1 construct: not shown: AVEXIS tag (bait or prey)
T1 sequence (looked up): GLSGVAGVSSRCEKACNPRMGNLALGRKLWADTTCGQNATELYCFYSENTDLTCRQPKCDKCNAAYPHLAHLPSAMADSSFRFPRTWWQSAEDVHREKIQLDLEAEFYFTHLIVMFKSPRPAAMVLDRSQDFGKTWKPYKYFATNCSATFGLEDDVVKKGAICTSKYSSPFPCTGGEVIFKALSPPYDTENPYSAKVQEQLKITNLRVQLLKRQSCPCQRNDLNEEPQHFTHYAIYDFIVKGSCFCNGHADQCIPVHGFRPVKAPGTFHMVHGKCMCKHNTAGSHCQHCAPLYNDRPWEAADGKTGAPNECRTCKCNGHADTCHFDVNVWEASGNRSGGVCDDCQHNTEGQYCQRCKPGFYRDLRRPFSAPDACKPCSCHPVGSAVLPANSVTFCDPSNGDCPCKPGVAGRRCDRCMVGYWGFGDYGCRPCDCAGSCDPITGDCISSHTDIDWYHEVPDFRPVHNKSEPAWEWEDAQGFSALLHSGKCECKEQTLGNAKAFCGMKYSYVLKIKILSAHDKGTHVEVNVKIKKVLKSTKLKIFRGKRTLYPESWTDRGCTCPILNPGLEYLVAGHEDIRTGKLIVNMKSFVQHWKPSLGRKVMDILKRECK
Source text: as §1

[4] = molecular target: T2, human Netrin-G1, AVEXIS protein (human, UniProt Q9Y2I2 29-510); assay: AVEXIS, prey on bait NTNG1; white = No binding
T2 construct: not shown: AVEXIS tag (bait or prey)
T2 sequence (looked up): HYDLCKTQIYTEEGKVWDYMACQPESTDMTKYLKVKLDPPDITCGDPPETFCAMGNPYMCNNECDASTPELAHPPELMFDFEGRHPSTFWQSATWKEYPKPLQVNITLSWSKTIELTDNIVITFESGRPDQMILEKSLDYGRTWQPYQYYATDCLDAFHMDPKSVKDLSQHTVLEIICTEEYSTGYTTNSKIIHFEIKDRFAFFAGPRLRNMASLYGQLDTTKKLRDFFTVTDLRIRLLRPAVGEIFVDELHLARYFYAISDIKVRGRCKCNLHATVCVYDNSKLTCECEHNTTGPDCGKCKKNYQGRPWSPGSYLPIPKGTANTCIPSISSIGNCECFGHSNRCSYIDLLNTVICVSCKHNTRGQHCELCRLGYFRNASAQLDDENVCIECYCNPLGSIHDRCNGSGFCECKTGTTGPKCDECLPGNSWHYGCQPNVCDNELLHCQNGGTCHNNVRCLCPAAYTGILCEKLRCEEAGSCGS
Source text: as §1

[5] = molecular target: T3, human Netrin1, recombinant AVEXIS protein (biotinylated when immobilised) (human, UniProt O95631 25-604); assay: AVEXIS, prey on bait NTN1; white = No binding
T3 construct: also called NTN1
Source text: as §1

[6] = molecular target: T4, human Netrin-G2, AVEXIS protein (human, UniProt Q96CW9 18-507); assay: AVEXIS, prey on bait NTNG2; white = No binding
T4 construct: not shown: AVEXIS tag (bait or prey)
T4 sequence (looked up): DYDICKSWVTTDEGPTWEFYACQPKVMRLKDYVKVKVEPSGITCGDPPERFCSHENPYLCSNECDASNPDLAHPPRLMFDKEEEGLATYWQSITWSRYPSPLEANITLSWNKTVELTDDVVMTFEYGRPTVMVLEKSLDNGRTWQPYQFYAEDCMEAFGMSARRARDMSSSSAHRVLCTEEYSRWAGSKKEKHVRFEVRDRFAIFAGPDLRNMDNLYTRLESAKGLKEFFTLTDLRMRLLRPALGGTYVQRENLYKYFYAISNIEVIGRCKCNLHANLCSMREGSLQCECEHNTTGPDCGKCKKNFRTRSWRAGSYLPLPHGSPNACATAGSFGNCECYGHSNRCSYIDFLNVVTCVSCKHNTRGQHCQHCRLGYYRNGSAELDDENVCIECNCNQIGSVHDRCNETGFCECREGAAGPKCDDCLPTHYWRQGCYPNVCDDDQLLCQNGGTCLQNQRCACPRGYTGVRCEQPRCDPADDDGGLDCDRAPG
Source text: as §1

[7] = molecular target: T5, Matn4 ECD, mono-biotinylated bait protein (positive control); assay: AVEXIS, prey on bait Matn4 (+), positive control for the prey; dark = Binding
T5 construct: extracellular domain; also called Matn4-bait
Source text: as §1

[8] = molecular target: T1, human Netrin-4, AVEXIS protein; assay: AVEXIS, prey on bait NTN4; white = No binding
Source text: as §1

[9] = molecular target: T3, human Netrin1, recombinant AVEXIS …; assay: AVEXIS, prey NTN1 on bait NTN3
Source text: as §1

[10] = molecular target: T6, zebrafish DraxinA, AVEXIS prey or bait protein (zebrafish, UniProt Q4V9H3 24-360); assay: AVEXIS, pentameric prey zebrafish DraxinB on bait zDraxinA
T6 construct: Prey and bait forms of the same protein are kept as one molecule; Preys are pentameric except in the monomeric-prey experiments; also called DraxinA prey protein
T6 chain: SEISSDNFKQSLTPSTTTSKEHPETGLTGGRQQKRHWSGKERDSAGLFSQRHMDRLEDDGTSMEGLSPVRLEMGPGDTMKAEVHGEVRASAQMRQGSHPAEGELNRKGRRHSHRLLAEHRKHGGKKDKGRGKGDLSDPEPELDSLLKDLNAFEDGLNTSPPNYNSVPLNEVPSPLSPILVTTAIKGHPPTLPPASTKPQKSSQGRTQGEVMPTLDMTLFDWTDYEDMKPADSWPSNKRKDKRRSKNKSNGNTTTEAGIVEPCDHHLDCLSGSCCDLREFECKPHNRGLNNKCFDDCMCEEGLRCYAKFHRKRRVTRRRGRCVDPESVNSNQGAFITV

[11] = molecular target: the molecule itself; assay: AVEXIS, prey on bait zDraxinB, upper value; white = No binding
[12] = molecular target: T6, zebrafish DraxinA, AVEXIS prey or bait …; assay: AVEXIS, prey on bait zDraxinA, lower value; white = No binding
[13] = molecular target: T7, human DRAXIN, AVEXIS prey or bait protein (human, UniProt Q8NBI3 26-349); assay: AVEXIS, pentameric prey zebrafish DraxinB on bait hDRAXIN
T7 construct: It was tested in both bait and prey orientations
T7 sequence: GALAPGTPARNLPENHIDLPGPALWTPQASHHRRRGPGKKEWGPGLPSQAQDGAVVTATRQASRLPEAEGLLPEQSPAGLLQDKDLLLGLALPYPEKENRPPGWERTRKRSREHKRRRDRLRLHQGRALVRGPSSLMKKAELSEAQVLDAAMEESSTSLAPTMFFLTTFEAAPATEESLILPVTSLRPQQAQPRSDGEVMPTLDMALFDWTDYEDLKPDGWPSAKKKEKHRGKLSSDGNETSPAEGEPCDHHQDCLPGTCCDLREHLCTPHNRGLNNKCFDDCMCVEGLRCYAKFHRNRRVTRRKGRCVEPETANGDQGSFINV

[14] = molecular target: T6, zebrafish DraxinA, AVEXIS prey or bait …; assay: AVEXIS, prey on bait zDraxinA, upper value; white = No binding
[15] = molecular target: the molecule itself; assay: AVEXIS, prey on bait zDraxinB, lower value; white = No binding
[16] = molecular target: the molecule itself; assay: AVEXIS, pentameric prey zebrafish DraxinB on bait zDraxinB
[17] = molecular target: T8, zebrafish Netrin1a, AVEXIS bait or prey protein (zebrafish); assay: AVEXIS competition: Netrin1a bait, DCC prey, purified Draxin as inhibitor
T8 construct: Prey and bait forms are kept as one molecule; also called Ntn1a; Netrin1a bait
Source text: (§2) The procedure of the competition assay is based on the AVEXIS assay.

[18] = molecular target: T8, zebrafish Netrin1a, AVEXIS bait or prey …; assay: AVEXIS competition: Netrin1a bait, monomeric DCC prey, Draxin added together with the prey
Source text: as §2
In order to do so we carried out an AVEXIS based competition assay and tested three different settings (FIG. 9A).

[19] = molecular target: T8, zebrafish Netrin1a, AVEXIS bait or prey …; assay: AVEXIS competition: Netrin1a bait, monomeric DCC prey, Draxin added 30 min before the prey
[20] = molecular target: T8, zebrafish Netrin1a, AVEXIS bait or prey …; assay: AVEXIS competition: Netrin1a bait preincubated with monomeric DCC prey, Draxin added 30 min after the prey
[21] = molecular target: T8, zebrafish Netrin1a, AVEXIS bait or prey …; assay: AVEXIS competition: Netrin1a bait, Unc5b prey, purified Draxin as inhibitor
Source text: as §2

B1: human Netrin-3, AVEXIS protein (ligand)
chain: not shown
notes: not shown: AVEXIS tag (bait or prey)
[1]
  A486nm: 0.068
[2]
  binding result: no binding
[3]
  binding result: no binding
[4]
  A486nm: 0.069
[5]
  A486nm: 0.068
[6]
  A486nm: 0.06
[7]
  A486nm: 0.224
[8]
  A486nm: 0.064
[9]
  binding result: no binding

B2: zebrafish DraxinB, AVEXIS protein (ligand)
chain: TNTHHNSPMEVFSENIIIPPKPEASIHHHTHQRTDRGRKERMTASQLRERPRIAIFHTQNEGPDLEGLSPVRLEMEPADKRRVMTPRKKTFMGSDSLIQEKMNISPGAETPEKAMRRPTVRKVFGGHITRAPHEEESLASGKKRRVSFDQRLNKASFGSPTEPVLPAATVGTFILPITAAVDGNPNPSSEPQVRRYLGGDVAPTFNMALFDWTDYEDMRPGDKKQYSKKQGSEKQATQSPSTGLVRLTSENNVCKHHLDCLPGSCCNLRKHVCELHNRGFNNKCYDSCMCEEGLRCYAKSHRHYRITRKKGQCVDPEDLNHAVSRWMQM
[10]
  binding result: no binding
[11]
  A486nm: 0.057
[12]
  A486nm: 0.056
[13]
  binding result: no binding
[14]
  A486nm: 0.061
[15]
  A486nm: 0.059
[16]
  binding result: no binding

B3: purified His-tagged full-length zebrafish Draxin protein (Draxin-CD4d3+4-6XHis) (ligand)
chain: T6 chain
notes: Expressed in HEK293-6E cells and purified on HisTrap HP; also called purified full length DraxinA; purified DraxinA; not shown: rat Cd4d3+4 tag and 6xHis
[17]
  IC50 (read off the curve): ~70 nM
[18]
  IC50 (read off the curve): ~10 nM
[19]
  IC50 (read off the curve): ~7 nM
[20]
  IC50 (read off the curve): ~20 nM
[21]
  IC50 (read off the curve): ~10 nM
